Reference: patent publication US9540654B2, “Synthetic brassica-derived chloroplast transit peptides” (Dow AgroSciences LLC, priority 2012, dated 2017)

Key:
[1] = test system: Cry1Ac, Cry1Ca, Cry1F proteins; experiment: Protein expression of stacked TraP12 cry1Ac, cry1Ca, cry1F in Arabidopsis (Western blotting, ELISA); set-up: species or system Arabidopsis thaliana
Text: The TraP12 chimeric transit peptide was fused to the 5′ end of cry1Ac, cry1Ca, and cry1F gene sequences which were stacked in multi PTU plasmid constructs to determine whether the TraP12 chimeric transit peptide enhanced or reduced expression of the proteins within Arabidopsis.
The constructs listed in Table 35 were assembled using art recognized methods. The constructs were subsequently transformed into Arabidopsis thaliana using the Agrobacterium mediated transformation protocol previously described. Transgenic Arabidopsis plants were obtained and protein expression was determined via Western blotting and ELISA assays.

[2] = test system: chloroplasts of the maize protoplast; experiment: Maize protoplast transient assay, microscopy of TraP12-YFP; type: cell-based, Zea mays var. B104; details: maize protoplasts, 12 hours after transfection
Text: The Trap12 chimeric chloroplast transit peptide-encoding polynucleotide sequence (SEQ ID NO:5) and the linker sequence (SEQ ID NO:10) were cloned upstream of the yellow fluorescent protein gene and incorporated into construct for testing via the maize protoplast transient in planta assay. The resulting construct contained the following plant transcription unit (PTU). The first PTU was comprised of the Zea mays Ubiquitin 1 promoter (ZmUbi1 promoter; Christensen, A., Sharrock R., and Quail P., (1992) Maize polyubiquitin genes: structure, thermal perturbation of expression and transcript splicing, and promoter activity following transfer to protoplasts by electroporation, Plant Molecular Biology, 18:675-689), Trap yellow fluorescent protein fusion gene (TraP12-YFP; US Patent App. 2007/0298412), and Zea mays Peroxidase 5 3′ untranslated region (ZmPer5 3′UTR; U.S. Pat. No. 6,384,207). The construct was confirmed via restriction enzyme digestion and sequencing.
Seed of Zea mays var. B104 were surface sterilized by shaking vigorously in 50% Clorox (3% sodium hypochlorite), containing 2-3 drops of Tween 20, for about 20 minutes. […]
Transfection of 100 to 500 μl of protoplasts (1-5×10^5) was completed by adding the protoplasts to a 2 ml microfuge tube containing about 40 μg of plasmid DNA (pDAB106597), at room temperature. […] Fluorescence of YFP was viewed by microscopy after 12 hours of incubation. […]

[3] = test system: chloroplasts of the tobacco leaf tissue; experiment: Tobacco transient assay, confocal microscopy of TraP-YFP; type: cell-based, Nicotiana benthamiana; details: Agrobacterium-infiltrated tobacco leaves
Text: The Trap12 and TraP13 chimeric chloroplast transit peptide sequences were initially tested via a transient in planta assay. Polynucleotide sequences which encode the Trap12 (SEQ ID NO:5) and TraP13 (SEQ ID NO:7) chimeric chloroplast transit peptide sequences were synthesized. A linker sequence (SEQ ID NO:10) was incorporated between the TraP sequence and the yfp coding sequence. The resulting constructs contained two plant transcription units (PTU). The first PTU was comprised of the Arabidopsis thaliana Ubiquitin 10 promoter (AtUbi10 promoter; Callis, et al., (1990) J. Biol. Chem., 265: 12486-12493), Trap yellow fluorescent protein fusion gene (TraP-YFP; US Patent App. 2007/0298412), and Agrobacterium tumefaciens ORF 23 3′ untranslated region (AtuORF23 3′UTR; U.S. Pat. No. 5,428,147). […]
Agrobacterium-infiltrated tobacco leaves were severed from the plant, and placed into a petri-dish with water to prevent dehydration. The infiltrated tobacco leaves were observed under blue light excitation with long-pass filter glasses held in place using a Dark Reader Hand Lamp™ (Clare Chemical Research Co.; Dolores, Colo.) to identify undamaged areas of the leaf that were successfully expressing the YFP reporter proteins. […]

B1: TraP12: chimeric chloroplast transit peptide SEQ ID NO:6, N-terminus from Brassica napus, C-terminus from Arabidopsis thaliana EPSPS (protein)
chain: MAQSSRICHGVQNPCVIISNLSKSNQNKSPFSVSLKTHQHPRAYPISSSWGLKKSGMTLIGSELRPLKVMSSVS
modifications: TraP12 chloroplast transit peptide
[1]
  translocation of expressed proteins (Western blots): directed the expressed proteins into the chloroplasts
[2]
  localization of YFP fluorescent protein (microscopy imaging): accumulated within the chloroplasts
[3]
  localization of YFP fluorescence signal (microscopy imaging): accumulated within the chloroplasts
